This test concerns the target synthetic HA 11 A-beta (1-40) peptide (human). Nature of the test: sandwich ELISA, anti-HA 11 capture, detection with position 1 or position 40 antibodies.

Among the data in patent publication US20030091983A1 are peptide concentration values, retold here.

As for mAB anti-HA 11 (BABCO) (antibody), the peptide concentration at which the ELISA signal approached saturation came to 10 ng/mL.
